One may read the Kd as the constant that tells how readily two partners part at equilibrium. A lower Kd goes with tighter binding.

What all share (settings): both partners purified
One assay has as its target T1, PP1α_(7-330) H248N (UniProt P62136 7-330, H248N).
T1 construct: Protein Phosphatase 1 alpha (PP1α), residues 7-330, H248N; His6-tagged form captured on the Ni-NTA sensor chip; also called PP1 H248N; source: E. coli, purified (Ni-NTA, SEC)
Kind of assay: SPR; His6-PP1 captured on Ni-NTA chip (NiHC200M), I3 variants injected; 25 °C; 20 mM Tris pH 8.0, 500 mM NaCl, 1 mM MnCl2, 0.5 mM TCEP, 0.05% Tween-20; one-to-one one state or one-to-one two state model (TraceDrawer).

The next assay deals with T2, PP1α_(7-330) H66K (UniProt P62136 7-330, H66K).
T2 construct: Protein Phosphatase 1 alpha (PP1α), residues 7-330, H66K (lacks the M1 metal); His6-tagged form captured on the Ni-NTA sensor chip; also called PP1 H66K; source: E. coli, purified (Ni-NTA, SEC)
T2 sequence (P62136 7-330 H66K): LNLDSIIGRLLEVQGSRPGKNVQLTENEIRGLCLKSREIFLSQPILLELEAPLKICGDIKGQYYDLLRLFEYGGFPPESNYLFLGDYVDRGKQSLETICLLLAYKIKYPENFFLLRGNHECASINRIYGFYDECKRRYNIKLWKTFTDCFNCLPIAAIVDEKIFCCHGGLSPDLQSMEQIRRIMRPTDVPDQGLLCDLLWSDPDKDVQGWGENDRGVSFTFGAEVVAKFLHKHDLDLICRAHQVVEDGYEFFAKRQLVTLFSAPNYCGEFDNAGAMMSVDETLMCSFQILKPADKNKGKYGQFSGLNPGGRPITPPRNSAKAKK
The description is as above.

For another assay, the target named is T3, PP1α_(7-330) C273S (UniProt P62136 7-330, C273S).
T3 construct: Protein Phosphatase 1 alpha (PP1α), residues 7-330, C273S; His6-tagged form captured on the Ni-NTA sensor chip; also called PP1 C273S; source: E. coli, purified (Ni-NTA, SEC)
T3 sequence (P62136 7-330 C273S): as the sequence (P62136 7-330 H66K) above, with K60H, C267S counted along it
Described as above.

The target in assay [1] is T4, PP1α_(7-330) (UniProt P62136 7-330).
T4 construct: Protein Phosphatase 1 alpha (PP1α), residues 7-330; His6-PP1 was captured on the Ni-NTA sensor chip as the SPR ligand; Mn2+ in all buffers; also called Protein Phosphatase 1; His6-PP1; source: E. coli, purified (Ni-NTA, SEC)
T4 sequence (P62136 7-330): as the sequence (P62136 7-330 H66K) above, with K60H counted along it
Described as above.

Assay [2] has as its target T4, PP1α_(7-330). Kind of assay: SPR; as a1 but pH 7.5; His6-PP1 captured on Ni-NTA chip, I3_(27-68) injected; two state model. (In general: Surface plasmon resonance follows binding to a sensor surface in real time, without labels.)
The target of assay [3] is T4, PP1α_(7-330). Kind of assay: SPR; as a1 but pH 6.5; His6-PP1 captured on Ni-NTA chip, I3_(27-68) injected; two state model.
The target of assay [4] is T4, PP1α_(7-330). Kind of assay: SPR; as a1 but pH 7.0; His6-PP1 captured on Ni-NTA chip, I3_(27-68) injected; two state model.

“And” between values parts separate entries of the source, which are not always exact repeats. Equal entries are not always repeated.

T1 sequence (P62136 7-330 H248N): as the sequence (P62136 7-330 H66K) above, with K60H, H242N counted along it

B1: I3_(27-68) (I3 PP1 interaction domain) (domain or fragment, human, UniProt O60927 27-68, looked up)
chain: SLTIKLRKRKPEKKVEWTSDTVDNEHMGRRSSKCCCIYEKPR
notes: PPP1R11), human, residues 27-68; source: E. coli BL21 (DE3), purified (Ni-NTA, TEV cleavage, heat, SEC); not shown: His6, N-terminal, cleaved; MBP, N-terminal, cleaved
For the molecule B1, the Kd in the assay with PP1α_(7-330) H248N was 7.74 nM and 5.38 nM; in the assay with PP1α_(7-330) H66K, 6.66 nM and 5.65 nM and 5.52 nM; with PP1α_(7-330) C273S, 16.9 nM and 15.8 nM and 15.6 nM; in the assay with PP1α_(7-330) [1], 9.87 nM and 7.88 nM and 10.5 nM and 9.04 nM; with PP1α_(7-330) [2], 8.32 nM and 9.2 nM and 9.58 nM; with PP1α_(7-330) [3], 16.2 nM and 17.7 nM and 17.1 nM. Moreover, the Kd with PP1α_(7-330) [4] was 14.9 nM and 16.2 nM and 17.1 nM.

These data come from article PMC10066265, “Inhibitor-3 inhibits Protein Phosphatase 1 via a metal binding dynamic protein–protein interaction” (Nature Communications, 2023).
